Experimental data taken from patent US20140154817A1 (WALTER AND ELIZA HALL INSTITUTE OF MEDICAL RESEARCH, published 2014).
Bridge positions count the residues as written; N and C are the ends. Ends that are not written are not given here. * marks the point of attachment. Biotin = O=C1N[C@H]2[C@H](CS[C@H]2CCCCC(=O)*)N1

B1: S519 peptide (peptide)
peptide: SLEEEWAQVECEVYGRGCPSGSLDESFYDWFERQLG
modifications: disulfide 11-18 (inferred)
notes: 36-residue synthetic peptide, Activotec, >85% purity; also called insulin mimetic peptide S519
B2: IR classical α-chain C-terminal peptide (residues 704-719) (peptide)
peptide: TFEDYLHNVVFVPRPS
notes: Mature IR-A numbering; also called IR αCT; IR-αCT
B3: F714A mutant of the IR classical αCT peptide (peptide)
peptide: TFEDYLHNVVAVPRPS
notes: also called IR αCT.714A; IR-αCT.714A
B4: IR485 pre-complexed with a 10-fold molar ratio of IGF-1R classical αCT peptide (other)
chain: HLYPGEVCPGMDIRNNLTRLHELENCSVIEGHLQILLMFKTRPEDFRDLSFPKLIMITDYLLLFRVYGLESLKDLFPNLTVIRGSRLFFNYALVIFEMVHLKELGLYNLMNITRGSVRIEKNNELCYLATIDWSRILDSVEDNHIVLNKDDNEECGDICPGTAKGKTNCPATVINGQFVERCWTHSHCQKVCPTICKSHGCTAEGLCCHSECLGNCSQPDDPTKCVACRNFYLDGRCVETCPPPYYHFQDWRCVNFSFCQDLHHKCKNSRRQGCHQYVIHNNKCIPECPSGYTMNSSNLLCTPCLGPCPKVCHLLEGEKTIDSVTSAQELRGCTVINGSLIINIRGGNNLAAELEANLGLIEEISGYLKIRRSYALVSLSFFRKLRLIRGETLEIGNYSFYALDNQNLRQLWDWSKHNLTTTQGKLFFHYNPKLCLSEIHKMEEVSGTKGRQERNDIALKTNGDKASCENELLKFSYIRTSFDKISDDDDKEQKLISEEDLN
peptide: VFENFLHNSIFVPRPE
notes: Non-covalent receptor fragment and peptide mixture in the ITC cell; also called IR485 + (10 × IGF1R-αCT)
B5: IR485 pre-complexed with a 10-fold molar ratio of IR classical αCT peptide (other)
chain: B4 chain
peptide: TFEDYLHNVVFVPRPS
notes: Non-covalent receptor fragment and peptide mixture in the ITC cell; also called IR485 + (10 × IR-αCT)
B6: IR485 construct of human insulin receptor (receptor)
chain: B4 chain
notes: The tag was not removed for ITC; Expressed in Lec8 mutant CHO cells; also called insulin mini-receptor IR485; first three domains of IR (L1-CR-L2)
B7: S519N20 peptide (peptide)
peptide: SLEEEWAQVECEVYGRGCPS
modifications: disulfide 11-18 (inferred)
notes: Synthetic peptide, AusPep, >90% purity; also called Site 2 peptide, the 20 N-terminal residues of S519
B8: S519C16 peptide (peptide)
peptide: GSLDESFYDWFERQLG
notes: Synthetic peptide, AusPep, >90% purity; also called Site 1 peptide, the 16 C-terminal residues of S519
B9: N-terminally biotinylated IR αCT peptide 698-719, wild type (peptide)
peptide: Biotin-ESSFRKTFEDYLHNVVFVPRPS
notes: Genscript, >75% purity; also called wt; native peptide
B10: N-terminally biotinylated IR αCT peptide 698-719, T704Y (peptide)
peptide: Biotin-ESSFRKYFEDYLHNVVFVPRPS
B11: N-terminally biotinylated IR αCT peptide 698-719, T704W (peptide)
peptide: Biotin-ESSFRKWFEDYLHNVVFVPRPS
B12: N-terminally biotinylated IR αCT peptide 698-719, R702Y/T704W (peptide)
peptide: Biotin-ESSFYKWFEDYLHNVVFVPRPS
B13: N-terminally biotinylated IR αCT peptide 698-719, R702W (peptide)
peptide: Biotin-ESSFWKTFEDYLHNVVFVPRPS
B14: N-terminally biotinylated IR αCT peptide 698-719, R702Y (peptide)
peptide: Biotin-ESSFYKTFEDYLHNVVFVPRPS
B15: IGF-1R classical α-chain C-terminal peptide (residues 691-706) (peptide)
peptide: VFENFLHNSIFVPRPE
notes: Mature IGF-1R numbering; also called IGF-1R αCT; IGF1R-αCT

Experiments:
[1] = target: B6; test: ITC, 25 °C, peptide titrated into IR485
[2] = target: T1, Zinc-free porcine insulin (porcine, UniProt P01315 88-108; P01315 25-54); test: ITC, 25 °C, IR αCT peptide 200 µM titrated into ZFP-insulin 20 µM
T1 construct: mature; Made zinc-free by dialysis against 0.1% acetic acid and lyophilisation; also called ZFP-insulin
Protocol: (§1) ITC experiments were performed using a VP-ITC isothermal titration calorimeter (MicroCal Inc., USA) with the calorimeter cell held at 25° C. All samples were degassed prior to injection or placement into the cell, and the instrument was temperature equilibrated prior to the start of the injections. In all experiments the volume of sample placed in the cell was 1.4 ml and the titrant was injected in 7 μl volumes over 14 s at 3 min intervals, with the total number of injections being 40. The sample contents were stirred at a speed of 310 rpm over the duration of the titration. […] Data were analyzed using the instrument's software incorporated within the Origin 7 software (OriginLab, USA) and in all cases fitted as a single-site interaction using the methodologies outlined in the instrument's manual.

[3] = target: B6; test: ITC, 25 °C, peptide titrated into IR485, single-site fit, mean of three
Protocol: as §1

Human IGF-I [4] = target: T2, Human IGF-I (human, UniProt P05019 49-118); test: ITC, 25 °C, IGF-I titrated into IR485 pre-mixed with 10-fold IGF-1R αCT peptide
T2 construct: mature
Protocol: as §1

[5] = target: T1, Zinc-free porcine insulin; test: ITC, 25 °C, hormone titrated into IR485 pre-mixed with 10-fold IGF-1R αCT peptide
Protocol: as §1

Human IGF-I [6] = target: T2, Human IGF-I; test: ITC, 25 °C, IGF-I titrated into IR485 pre-mixed with 10-fold IR αCT peptide
Protocol: as §1

[7] = target: T1, Zinc-free porcine insulin; test: ITC, 25 °C, hormone titrated into IR485 pre-mixed with 10-fold IR αCT peptide
Protocol: as §1

Human IGF-I [8] = target: T2, Human IGF-I; test: ITC, 25 °C, IGF-I 100 µM titrated into IR485 10 µM
Protocol: as §1

[9] = target: T1, Zinc-free porcine insulin; test: ITC, 25 °C, ZFP-insulin 50 µM titrated into IR485 5 µM
Protocol: as §1

[10] = target: B6; test: ITC, 25 °C, S519N20 50 µM titrated into IR485 5 µM
Protocol: as §1

[11] = target: B6; test: ITC, 25 °C, S519C16 titrated into IR485 pre-mixed with a 10-fold molar ratio of IR αCT peptide (competitor)
Protocol: as §1

[12] = target: B6; test: ITC, 25 °C, S519C16 titrated into IR485 pre-mixed with a 10-fold molar ratio of IR αCT peptide (competitor); apparent Kd; IR485 in the presence of a 10-fold molar ratio of IR αCT peptide
Protocol: as §1

[13] = target: B6; test: ITC, about 25 °C, peptide titrated into IR485
Protocol: (§2) The insulin mini-receptor IR485 construct was produced and purified as previously described (Lou et al., 2006), omitting the final ion-exchange chromatography step. Isothermal titration calorimetry (ITC) experiments were performed using a VP-ITC isothermal titration calorimeter (MicroCal Inc., USA) with the calorimeter cell held at about 25° C. The ITC cell contained insulin mini-receptor IR485 prepared at about 10 μM concentration in Tris-buffered saline plus azide (TBSA; about 24.8 mM Tris-HCl (pH 8.0), 137 mM NaCl, 2.7 mM KCl, and 0.02% sodium azide), and the syringe contained the peptide prepared at about 60 μM concentration in TBSA. All samples were degassed prior to injection or placement into the cell, and the instrument was temperature equilibrated prior to the start of the injections.
(§3) In all experiments the volume of the insulin mini-receptor IR485 sample placed in the cell was about 1.4 ml and the titrant was injected in about 7 μl volumes over 14 s at 3 min intervals, with the total number of injections being 40. The sample contents were stirred at a speed of about 310 rpm over the duration of the titration. All titrants were first injected into a solution of TBSA alone in order ascertain the heat of dilution, which was then subtracted from the data of interest as appropriate. Each experiment was performed three times, except for that employing the native peptide, which was performed twice. Data were analyzed using the instrument's software incorporated within the Origin 7 software (OriginLab, USA) and in all cases fitted as a single-site interaction using the methodologies outlined in the instrument's manual.

[14] = target: B6; test: ITC, about 25 °C, peptide about 60 µM titrated into IR485 about 10 µM
Protocol: as §2, §3

[15] = target: B6; test: ITC, mutant αCT peptides 698-719 titrated into IR485
Protocol: as §2
as §3, with “All titrants were first injected into a solution of TBSA alone in order ascertain the heat of dilution, which was then subtracted from the data of interest as appropriate. Each experiment was performed three times, except for that employing the native peptide, which was performed twice.” left out

Human IGF-I [16] = target: T2, Human IGF-I; test: ITC, 25 °C, IGF-1R αCT peptide 200 µM titrated into IGF-I 20 µM
Protocol: as §1

T1 sequence (P01315 88-108 limits assumed, chain 1 of 2): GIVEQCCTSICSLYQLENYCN
T1 sequence (P01315 25-54 limits assumed, chain 2 of 2): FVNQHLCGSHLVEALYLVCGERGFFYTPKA

Binder | TΔS° [13] | ΔG° [13] | ΔH° [13] | Kd [14] | further results
B1 |  |  |  |  | -TΔS^0 [1]: 24 kJ/mol; Kd [1]: 0.011 µM; ΔH^0 [1]: -69 kJ/mol
B2 |  |  |  |  | Kd [2]: > 1000 µM; Kd [3]: 3.9 µM
B3 |  |  |  |  | Kd [3]: 6.5 µM
B4 |  |  |  |  | Kd (Human IGF-I [4]): 0.022 µM; Kd [5]: 0.0057 µM
B5 |  |  |  |  | Kd (Human IGF-I [6]): 0.49 µM; Kd [7]: 0.017 µM
B6 |  |  |  |  | Kd (Human IGF-I [8]): > 1000 µM; Kd [9]: > 1000 µM
B7 |  |  |  |  | Kd [10]: > 1000 µM
B8 |  |  |  |  | -TΔS^0 [1]: 12 kJ/mol; Kd [1]: 0.0026 µM; ΔH^0 [1]: -61 kJ/mol; -TΔS^0 [11]: -11 kJ/mol; ΔH^0 [11]: -33 kJ/mol; Kd [12]: 0.016 µM
B9 | -14 kJ/mol | -33.5 kJ/mol | -48 kJ/mol | 1.34 µM | 
B10 | -11 kJ/mol | -35 kJ/mol | -46 kJ/mol | 0.74 µM | 
B11 | 11 kJ/mol | -38.2 kJ/mol | -26 kJ/mol | 0.201 µM | 
B12 | -5 kJ/mol | -44.2 kJ/mol | -49 kJ/mol | 0.018 µM | fold increase in affinity against the wild type peptide [15]: ≤ 100 fold
B13 | -3 kJ/mol | -37.2 kJ/mol | -35 kJ/mol | 0.309 µM | 
B14 | -12 kJ/mol | -37.7 kJ/mol | -50 kJ/mol | 0.249 µM | 
B15 |  |  |  |  | Kd (Human IGF-I [16]): > 1000 µM; Kd [3]: 17.6 µM
